Columns and labels:
[1] = molecular target: rhTNFα labeled in the amine groups (NT-650, NHS-coupling) (human) (UniProt P01375); assay: MST
[2] = molecular target: recombinant human TNFα (soluble human TNFα, residues 85-233, C-terminal His tag) (human) (UniProt P01375); assay: ELISA
[3] = molecular target: Adalimumab labeled with NT-647 in the thiol groups (Cys-coupling) (human); assay: MST

Adalimumab (Humira) (antibody)
KD of the first phase (Adalimumab 30.5 pM to 7.8 nM) [1]: 100 pM
KD of the second phase (Adalimumab 1.95 to 1 µM) [1]: 0.021 µM
Kd [2]: 0.00132 µM
OD50 (antagonist concentration at half-maximal OD), rhTNFα coated at 1,25 µg/ml [2]: 0.641 nM
OD50 (antagonist concentration at half-maximal OD), rhTNFα coated at 2,5 µg/ml [2]: 0.622 nM

recombinant human TNFα (soluble human TNFα, residues 85-233, C-terminal His tag) (from UniProt P01375 85-233) (ligand)
Kd [3]: 0.0296 µM

From publication doi:10.1101/2020.06.21.163824
